Article PMC9323411

Molecular target: CLDmut (CD4-linker-DC-SIGN fusion protein with a linker of 8 Gly4Ser repeats and the Cys-to-Ser back (human) (UniProt P01730))
Test: BLI

Work on “trimeric HIV-1 CN54 gp140 (domain or fragment)” yielded a Kd of 390 pM, a koff of 1.62e-05 s⁻¹ and a kon of 41100 M⁻¹ s⁻¹.
